Assay results reported in US20220016249A1.

Columns and labels:
[1] = target: IL-2 receptor signaling complex on primary human Treg cells (IL-2Rα expressing; IL-2Rαβγ) (human) (UniProt P01589); test: cell-based or functional assay; set-up: unit not given beside the values
[2] = target: IL-2 receptor signaling complex on primary human NK cells and CD8+ T cells (IL-2Rβγ) (human) (UniProt P14784); test: cell-based or functional assay; set-up: unit not given beside the values
Chain of IL-2 receptor signaling complex on primary human NK cells and CD8+ T cells (IL-2Rβγ) (human) (P14784 27-551, chain 1 of 2): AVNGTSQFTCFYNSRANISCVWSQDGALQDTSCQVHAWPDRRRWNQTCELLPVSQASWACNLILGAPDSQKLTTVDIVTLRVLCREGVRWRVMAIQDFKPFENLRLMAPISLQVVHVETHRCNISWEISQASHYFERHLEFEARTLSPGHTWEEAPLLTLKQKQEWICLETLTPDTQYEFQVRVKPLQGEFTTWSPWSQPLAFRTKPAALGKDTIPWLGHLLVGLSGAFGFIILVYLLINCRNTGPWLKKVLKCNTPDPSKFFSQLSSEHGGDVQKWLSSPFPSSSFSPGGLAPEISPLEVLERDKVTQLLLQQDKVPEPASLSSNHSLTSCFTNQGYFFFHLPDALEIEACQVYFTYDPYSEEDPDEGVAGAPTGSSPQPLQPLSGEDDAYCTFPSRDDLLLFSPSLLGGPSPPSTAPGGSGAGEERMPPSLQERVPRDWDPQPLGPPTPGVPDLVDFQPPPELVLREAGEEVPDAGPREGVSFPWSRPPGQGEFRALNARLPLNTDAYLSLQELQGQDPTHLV
Chain of IL-2 receptor signaling complex on primary human NK cells and CD8+ T cells (IL-2Rβγ) (human) (P31785 23-369, chain 2 of 2, further chain): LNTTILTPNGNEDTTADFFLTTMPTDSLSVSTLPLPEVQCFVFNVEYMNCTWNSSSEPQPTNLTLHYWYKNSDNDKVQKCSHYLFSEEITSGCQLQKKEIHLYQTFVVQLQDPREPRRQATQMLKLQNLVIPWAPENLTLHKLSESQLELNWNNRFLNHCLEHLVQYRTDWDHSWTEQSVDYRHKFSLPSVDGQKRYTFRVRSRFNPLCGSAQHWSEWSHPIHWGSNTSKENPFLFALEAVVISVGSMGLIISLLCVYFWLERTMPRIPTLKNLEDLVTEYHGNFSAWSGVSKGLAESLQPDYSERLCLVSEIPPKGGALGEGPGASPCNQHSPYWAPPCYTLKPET

Chain of IL-2 receptor signaling complex on primary human Treg cells (IL-2Rα expressing; IL-2Rαβγ) (human) (P01589 22-272, chain 1 of 3): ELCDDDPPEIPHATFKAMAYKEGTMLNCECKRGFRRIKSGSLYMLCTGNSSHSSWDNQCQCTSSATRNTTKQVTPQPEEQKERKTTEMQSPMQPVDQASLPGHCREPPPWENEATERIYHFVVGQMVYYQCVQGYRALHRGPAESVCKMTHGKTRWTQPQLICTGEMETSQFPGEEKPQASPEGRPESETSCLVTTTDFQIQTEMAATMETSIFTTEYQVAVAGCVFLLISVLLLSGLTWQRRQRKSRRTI
Chain of IL-2 receptor signaling complex on primary human Treg cells (IL-2Rα expressing; IL-2Rαβγ) (human) (P14784 27-551, chain 2 of 3, further chain): as the sequence (P14784 27-551, chain 1 of 2) above
Chain of IL-2 receptor signaling complex on primary human Treg cells (IL-2Rα expressing; IL-2Rαβγ) (human) (P31785 23-369, chain 3 of 3, further chain): as the sequence (P31785 23-369, chain 2 of 2, further chain) above
Chain of S127_30kD (P60568 other isoform, or with tags, fused parts or gaps limits assumed): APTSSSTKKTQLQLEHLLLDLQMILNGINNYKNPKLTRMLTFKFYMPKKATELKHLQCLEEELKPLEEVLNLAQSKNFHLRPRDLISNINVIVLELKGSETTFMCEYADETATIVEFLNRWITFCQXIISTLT

EC50 for pSTAT5 signaling, Treg cells [1]	EC50 for pSTAT5 signaling, CD8+ T cells [2]	EC50 for pSTAT5 signaling, NK cells [2]	Substance
142	102000	20500	V91K (from UniProt P60568 21-153) (ligand)
176000	1.25e+07	2.78e+06	N88R/D109_30kD (from UniProt P60568 21-153) (ligand)
11100	1.5e+07	2.31e+06	N88R (from UniProt P60568 21-153) (ligand)
150			S127_30kD (from UniProt P60568 21-153) (ligand)
